The results in this text go back to patent CN109734803A (ZONHON BIOPHARMA INST INC, dated 2019).

Assay [1] concerns the target T1, 重组人MYO(大肠杆菌重组表达，本公司制备) (human, UniProt P02144 2-154).
T1 construct: The background describes myoglobin as one chain of 153 residues with a haem group; also called 重组MYO; 人肌红蛋白
T1 sequence (looked up): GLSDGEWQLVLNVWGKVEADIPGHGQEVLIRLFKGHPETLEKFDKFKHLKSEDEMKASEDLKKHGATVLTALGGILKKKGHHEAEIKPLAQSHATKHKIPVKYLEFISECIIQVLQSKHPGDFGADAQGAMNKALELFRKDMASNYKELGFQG
As to the kind of experiment: indirect ELISA, recombinant human MYO coated at 1 μg/mL, hybridoma supernatant, HRP goat anti-mouse IgG. (In general: In an ELISA, binding on a coated surface is turned into a signal by an enzyme label.)

Assay [2] deals with T1, 重组人MYO(大肠杆菌重组表达，本公司制备). As to the kind of experiment: Western blot, recombinant MYO on nitrocellulose, HRP-labelled M08 at 1:1000. Background: A western blot detects proteins with antibodies after separation by electrophoresis.
The target of assay [3] is T1, 重组人MYO(大肠杆菌重组表达，本公司制备). As to the kind of experiment: Western blot, recombinant MYO on nitrocellulose, HRP-labelled M26 at 1:1000.

B1: 杂交瘤细胞株M26的抗人MYO抗体 (antibody, V domains shown)
VH: QVQLQQSGDDLVKPGASVKLSCKASGYTFTSYWINWIKQRPGQGLEWIGRIAPEGDSTYYNEMFKGKATLTVDTSSSTAYIQLSSLSSEDSAVYFCAREVRNAMDYWGQGTSVTVSS
VL: DIQMNQSPSSLSASLGDTITITCHASQNIHVWLSWYLQKPGNITKLLIYEASNLHTGVPSRFSGSGSGTGFTLTISSLQPEDIATYYCQQGQRYPLTFGGGTKLEIK
notes: Mouse hybridoma culture supernatant, detected with HRP goat anti-mouse IgG; also called 抗人肌红蛋白抗体(M26)
With B1, the binding result in the assay with 重组人MYO(大肠杆菌重组表达，本公司制备) [1] is “binds”.

B2: 单链抗体M08 (scFv)
scFv: QVQLQQSGAELAKPGASVKMSCKASGYTFTSYWMHWVKQRPGQGLEWIGYIKPNTDYTEYNQKFKDKATLTADKSSSTAYMQLSSLTSEDSAVYYCTRIRGYALDYWGQGTSVTVSSGGGGSGGGGSGGGGSDIVMTQSPSSLTVTAGEKVTMICKSSQSLLNSGNQKNYLTWYQQKPGQPPKLLIYWASTRESGVPDRFTGSGSGTDFTLTISSVQAEDLAVYYCQNDYNFPLTFGAGTKLELK
notes: VH and VL of M08 joined by a (GGGGS)3 linker, expressed in E. coli and purified on HisTrap; HRP-labelled in the Western blot; coupled to time-resolved fluorescent microspheres in the test card; also called M08-scFv; M08-HRP; not shown: Histidine tag introduced downstream of the gene
On to B2, for which, in the assay with 重组人MYO(大肠杆菌重组表达，本公司制备) [2], the binding result is listed as “binds”.

B3: 杂交瘤细胞株M08的抗人MYO抗体 (antibody, V domains shown)
VH: QVQLQQSGAELAKPGASVKMSCKASGYTFTSYWMHWVKQRPGQGLEWIGYIKPNTDYTEYNQKFKDKATLTADKSSSTAYMQLSSLTSEDSAVYYCTRIRGYALDYWGQGTSVTVSS
VL: DIVMTQSPSSLTVTAGEKVTMICKSSQSLLNSGNQKNYLTWYQQKPGQPPKLLIYWASTRESGVPDRFTGSGSGTDFTLTISSVQAEDLAVYYCQNDYNFPLTFGAGTKLELK
notes: Mouse hybridoma culture supernatant, detected with HRP goat anti-mouse IgG; also called 抗人肌红蛋白抗体(M08)
As for B3, the binding result with 重组人MYO(大肠杆菌重组表达，本公司制备) [1] is “binds”.

B4: 单链抗体M26 (scFv)
scFv: QVQLQQSGDDLVKPGASVKLSCKASGYTFTSYWINWIKQRPGQGLEWIGRIAPEGDSTYYNEMFKGKATLTVDTSSSTAYIQLSSLSSEDSAVYFCAREVRNAMDYWGQGTSVTVSSGGGGSGGGGSGGGGSDIQMNQSPSSLSASLGDTITITCHASQNIHVWLSWYLQKPGNITKLLIYEASNLHTGVPSRFSGSGSGTGFTLTISSLQPEDIATYYCQQGQRYPLTFGGGTKLEIK
notes: VH and VL of M26 joined by a (GGGGS)3 linker, expressed in E. coli and purified on HisTrap; HRP-labelled in the Western blot; coated on the T line of the nitrocellulose membrane in the test card; also called M26-scFv; M26-HRP; not shown: Histidine tag introduced downstream of the gene
In the case of B4, the binding result with 重组人MYO(大肠杆菌重组表达，本公司制备) [3] was “binds”.
